Data reported in the supplement of paper PMC10567573.

B1: TBC1D10A (parent)
chain: WCLVQICEKYLPGYYSEKLEAIQL
B2: RAB22A (parent)
chain: FVEDSFDPNINPTIGASFMTKTVQ

Variants of: B1
Test: protein stability index of a GFP-peptide fusion (GPS, HEK-293T) (PSI 1-6); higher = more stable
Conditions: c terminus: a fixed tail appended
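Further: lentivirally expressed fusions sorted by FACS into six bins by GFP to DsRed ratio, PSI derived from sequencing read proportions per bin multiplied by bin number.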

Protein stability index of substitutions, site by site:
K9: P 2.17 | I 3.29 | A 1.11 | C 4.4 | H 2.65 | F 3.33 | T 3.21
E8: K 4.48 | Y 3.51 | C 2.85 | Q 4.87 | M 2.81 | L 4.41 | T 2.34 | A 2.95
V4: Q 1.48 | G 2.45 | I 2.23 | E 2.09 | N 1.57 | M 3.23 | T 2.83 | P 1.73 | H 1.59 | L 2.19
I6: C 3.08 | P 2.45 | G 1.73 | K 2.41
L11: P 3.62 | S 2.68 | C 2.72 | E 2.65 | D 2.91 | I 3.03
P12: Y 2.66 | S 3.84 | M 1.77 | K 2.12 | W 2.32 | I 2.32 | N 4.27 | T 1.62
C7: N 3.08 | T 3.5 | L 3.68 | K 2.9 | D 2.31 | M 2.57 | R 3.73 | Y 3.39
C2: F 1.81 | R 3.28 | S 1.67 | G 2.79 | N 3.07 | P 1.86 | E 1.01
G13: E 3.01 | A 3.16 | C 1.5
Y10: M 3.09 | I 1.18 | V 1.61 | P 2.35 | G 4.89 | K 2.62 | W 4.21 | Q 2.39
L3: C 3.05 | P 1.5 | G 3.3 | W 1.02 | M 2.45 | D 1.29 | S 1.88 | H 1.87 | N 1.88 | T 4.55
Q5: P 2.69 | L 3.52 | F 2.92 | G 3.13 | S 2.72 | M 2.16 | K 1.71 | V 4.85
W1: F 2.61 | A 3.88 | R 2.22 | T 3.45 | V 2.6 | H 2.83 | Q 1.07 | P 1.93

Variants of: B2
Test: as above
Conditions: c terminus: a fixed tail appended

Protein stability index, by site and new letter:
Q24: L 2.19 | N 2.28 | M 1.71 | G 2.22 | K 2.15 | T 2.01 | R 2.38 | V 2.24 | P 2.45 | Y 2.98 | C 1.89 | F 1.49 | A 2.11 | H 2.1 | E 2.91 | I 1.55 | D 2.56 | S 2.82
K21: H 2.08 | F 2.38 | I 2.18 | W 2.44 | Q 2.87 | N 2.51 | E 2.67 | S 2.11 | Y 1.93 | R 2.19 | A 2.03 | G 2.29 | L 2.24 | P 2.74 | C 1.56 | D 2.87 | M 1.94 | T 2.41 | V 1.89
P12: Y 2.37 | L 1.85 | I 1.82 | N 2.15 | W 2.08 | Q 2.45 | T 2.25 | S 2.4 | K 2.42 | V 2.18 | R 1.81 | M 1.89
G15: E 2.86 | V 1.87 | Y 1.9 | F 2.33 | N 2.41 | R 1.92 | W 1.85 | T 2.22 | L 2.06 | Q 2.38 | A 2.46 | P 2.42 | I 1.66 | D 2.86 | M 2.06 | S 2.4 | H 2.08 | C 2.03 | K 2.1
M19: H 2.12 | A 3.11 | V 2.29 | L 2.22 | D 3.24 | S 2.64 | F 1.73 | C 2.66 | R 2.46 | G 2.4 | W 3.23 | N 2.99 | E 3.36 | P 2.62 | K 2.1 | Y 2.08 | Q 2.38 | I 2.25 | T 2.81
T22: S 2.26 | K 2.77 | M 2.11 | H 2.09 | W 1.23 | P 2.75 | L 1.78 | A 2.43 | G 2.25 | F 2.02 | N 2.25 | Q 2.45 | V 2.2 | E 2.91 | I 1.6 | R 2.34 | Y 1.73 | C 2.35 | D 2.85
I14: G 2.59 | S 2.46 | V 2.69 | C 2.01 | W 2.43 | D 3.19 | H 2.87 | Q 2.78 | P 3.07 | R 2.14 | F 2.05 | E 3.21 | K 2.29 | M 2.55 | N 2.81 | L 2.14 | Y 2.23 | A 2.07 | T 2.78
V23: P 2.94 | D 2.76 | E 3.24 | G 2.56 | W 2.5 | R 1.89 | Q 2.39 | L 2.93 | S 2.66 | A 2.43 | K 2.26 | C 2.37 | N 2.44 | F 1.79 | H 2.5 | M 1.98 | Y 2.52 | I 2.37 | T 2.78
S17: Q 2.6 | T 2.17 | Y 1.82 | C 2.04 | I 2.25 | N 2.28 | P 2.49 | M 1.74 | G 2.31 | W 1.96 | A 2.18 | H 2.35 | K 2.29 | F 2.14 | V 1.74 | D 2.53 | R 2.51 | L 1.77 | E 2.66
A16: D 2.55 | R 2.26 | Y 1.95 | I 2.11 | T 2.26 | G 2.56 | C 1.8 | P 2.54 | E 3.38 | K 1.97 | Q 2.61 | N 2.74 | W 2.15 | H 2.11 | L 1.81 | V 1.81 | F 2.07 | M 1.75 | S 2.86
T20: V 2.23 | K 2.23 | P 2.29 | L 1.66 | I 1.87 | W 2.35 | E 2.39 | S 2.06 | F 1.85 | R 2.12 | D 2.52 | C 2.38 | M 2.22 | Q 2.24 | A 2.14 | H 2.34 | G 2.58 | N 2.31 | Y 1.86
T13: L 2.21 | R 1.93 | V 2.29 | P 2.67 | S 2.31 | M 1.91 | C 1.79 | F 1.59 | Y 1.73 | N 2.19 | G 2.15 | H 2.31 | I 1.75 | A 2.39 | E 2.52 | W 3.05 | K 2.29 | Q 2.44 | D 2.71
F18: K 2.79 | H 3.24 | R 2.83 | G 3.35 | C 3.17 | W 2.08 | D 3.45 | Q 3.52 | L 2.56 | M 2.65 | N 3.94 | S 3.29 | T 3.15 | P 2.98 | E 3.37 | V 3.07 | A 3.22 | I 3.32 | Y 3.08
